From US7531329B2, “Carbonyl reductase, gene thereof and method of using the same” (Kaneka Corporation, priority 2002, dated 2009)

Assay: Determination of enzyme properties of purified RDR
Format: biochemical
Conditions: N-benzyl-3-pyrrolidinone 5 mM, coenzyme 0.25 mM, pH 6.5, 30° C.
Protocol: RDR obtained in Example 1 was investigated as to its enzymatic properties. Fundamentally, the enzyme activity was measured by adding the substrate N-benzyl-3-pyrrolidinone (5 mM), the coenzyme […] (0.25 mM) and the enzyme to 100 mM phosphate buffer (pH 6.5), allowing the reaction to proceed at 30° C. for 1 minute, and then measuring the decrease in absorbance at a wavelength of 340 nm.
In the presence of NADH as a coenzyme, the enzyme acted on N-benzyl-3-pyrrolidinone to form (R)-N-benzyl-3-pyrrolidinol with an optical purity of 99.9% ee or more. The enzyme activity measured with NADPH as a coenzyme by the above method was about 0.6% of the activity obtained by using NADH as a coenzyme.
Enzyme activity measurements were carried out by the same enzyme activity measurement method as mentioned above except that the pH was varied in the range of 4.0 to 8.0 using, as the buffer, 100 mM phosphate buffer and 100 mM acetate buffer.
Enzyme activity measurements were carried out by the same enzyme activity measurement method as mentioned above except that the temperature was varied from 20° C. to 60° C.

Substance: RDR: purified enzyme from Devosia riboflavina IFO 13584 stereoselectively reducing N-benzyl-3-pyrrolidinone to (R)-N-benzyl-3-pyrrolidinol
- enzyme activity with NADPH as a coenzyme relative to the activity with NADH as a coenzyme: about 0.6%
